This note sets out measurements from paper PMC8154056.

This experiment concerns the target Gloeobacter violaceus deeply-rooted thioredoxin reductase (GvDTR), renamed ferredoxin flavin-thioredoxin reductase (GvFFTR) (Gloeobacter violaceus) (UniProt Q7NMP6). The experiment is described as follows: ITC. (In general: Isothermal titration calorimetry measures the heat released or taken up as one component is titrated into another.)

As a reminder, the stoichiometry N is a count of units in the complex or per binding partner.

As for “Gloeobacter violaceus plant-type [2Fe-2S] ferredoxin 1 (GvFdx1) (natural protein)”, the stoichiometry N came to 1.
